Data set [1] can be described thus: Stability screen of HetSiFA [^18F]-12 in acetonitrile (RCC by radio-TLC over time). In kind it is physicochemical. Particulars: room temperature, 1.8 mg (9.4 μmol) Et4NHCO3 used for elution. On the procedure: Isotopic exchange reactions were conducted in 1 mL Eppendorf tube containing hetroarylfluorosilanes 1 in dry acetonitrile (3 mM stock solution, 50 μL). […] An aliquot of the crude reaction mixture was spotted on a silica gel coated TLC plate, developed in a glass chamber using [^18F]fluoride Het Si tBu tBu F Het Si tBu tBu ^18F Et4NHCO3 CH3CN, 23° C. 1 [^18F]-1 S15 acetonitrile (100%) or acetonitrile:water (95:5) as the eluent and analyzed by radio-TLC using a miniGITA*TLC scanner. The radiochemical conversion (RCC) was calculated by dividing the integrated area of the ^18F-fluorinated product peak by the total integrated area of all peaks on the TLC and multiplying by 100 to convert to percentage units. Isotopic exchange and purity was confirmed by analytical HPLC by co-injecting with the 19F-reference standard (UV absorbance at 254 nm). An aliquot of the crude reaction mixture (10 μL) was added to the 19F-reference standard (1 mg/mL) in acetonitrile (10 μL) and the sample was injected into the analytical HPLC.
[^18F]TEAF was obtained by eluting fluoride ion with high base or low base, following the protocol described above.

Data set [2] can be described thus: MicroPET/CT biodistribution of [^18F]-17 in normal mice (ROI quantification). The data set is classed as in vivo, C57BL6 mice. The settings on record: for tissue uptake at 1 h / tissue uptake at 2 h: C57BL/6, mouse; for tissue uptake at 2 h: 2 h post-injection. The protocol: Micropositron emission tomography-computed tomography (microPET/CT) imaging studies were performed in normal mice to investigate the in vivo stability of the silicon-fluorine bond in the Heteroaromatic silicon fluoride acceptor peptide conjugate, [^18F]-17. Reformulated [^18F]-17 (2.2 MBq) was injected via the tail vein into C57BL/6 mice (n=3), and microPET/CT scans were acquired. […] Alternatively, the GI activity may also be a result of this particular peptide, for which the full cholecystokinin construct plays important roles in stimulating digestion within the GI system.
Animal studies were approved by the UCLA Animal Research Committee and carried out according to the guidelines of the Department of Laboratory Animal Medicine at UCLA. Female C57BL6 mice were injected intravenously via tail vein with approximately 2.2 MBq (60 μCi) of [^18F]-17. Animals were kept warm on heating pads throughout the imaging procedures. At 1 and 2 h after tracer injection, mice were anesthetized with 2% isoflurane in oxygen and placed in dedicated Genisys8 imaging chambers for PET/CT imaging on the Genisys8 PET/CT (Sofie Biosciences). PET scans were acquired for 10 min with an energy window of 150-650 keV reconstructed using ML-EM, followed by CT acquisition. All PET images were corrected for CTbased photon attenuation, detector normalization and radioisotope decay (scatter correction was not applied) and converted to units of percent injected dose per gram (% ID/g). Images were analyzed by drawing regions-of-interest (ROI) in select tissues using AMIDE v1.0.5. See e.g. Loening et al., Mol. Imaging 2003, 3, 131.

Structures are written as SMILES. Read-outs that look alike come from different tables or passages of the source.

With `CC(C)(C)[Si](F)(c1cc2cccc(C(=O)O)c2s1)C(C)(C)C` [[^18F]-12, 2-(di-tertbutylfluorosilyl) benzo[b]thiophene-7-carboxylic acid], the “RCC (stability screen)” value in data set [1] (2 min) turned out to be 95%; in data set [1] (5 min), 96%; in data set [1] (15 min), 97%; in data set [1] (30 min) it was 97%; in data set [1] (60 min) it was 97%.
In the case of `CSCC[C@H](NC(=O)[C@H](Cc1c[nH]c2ccccc12)NC(=O)CN1CCN(CC(=O)O)CCN(CC(=O)O)CCN(CC(=O)O)CC1)C(=O)N[C@@H](CC(=O)NCCOCCOCCOCCNC(=O)c1cccc2cc([Si](F)(C(C)(C)C)C(C)(C)C)sc12)C(=O)N[C@@H](Cc1ccccc1)C(N)=O` [[^18F]-17], the “Biodistribution, Muscle” value in data set [2] (PET quantification, 1 h post-injection, i.v. tail vein, C57BL6 mice) came to 0.36 % ID/g. For the same compound, the tissue uptake at 1 h in data set [2] (female, GI tract, iv, 2.2 MBq, total radioactivity, PET quantification, 1 h post-injection, i.v. tail vein, C57BL6 mice, read-out: Biodistribution, GI) came to 107 ± 24 %ID/g; in data set [2] (female, bladder, iv, 2.2 MBq, total radioactivity, PET quantification, 1 h post-injection, i.v. tail vein, C57BL6 mice, read-out: Biodistribution, Bladder), 35 ± 12 %ID/g; in data set [2] (female, bone (knee), iv, 2.2 MBq, total radioactivity, PET quantification, 1 h post-injection, i.v. tail vein, C57BL6 mice, read-out: Biodistribution, Bone (knee)), 8 ± 0.65 %ID/g; in data set [2] (female, brain, iv, 2.2 MBq, total radioactivity, PET quantification, 1 h post-injection, i.v. tail vein, C57BL6 mice, read-out: Biodistribution, Brain), 0.44 ± 0.06 %ID/g; in data set [2] (female, gallbladder, iv, 2.2 MBq, total radioactivity, PET quantification, 1 h post-injection, i.v. tail vein, C57BL6 mice, read-out: Biodistribution, Gallbladder), 33 ± 14 %ID/g; in data set [2] (female, heart, iv, 2.2 MBq, total radioactivity, PET quantification, 1 h post-injection, i.v. tail vein, C57BL6 mice, read-out: Biodistribution, Heart), 2 ± 0.25 %ID/g. Further, the tissue uptake at 1 h was 2.9 ± 0.62 %ID/g in data set [2] (female, kidney, iv, 2.2 MBq, total radioactivity, PET quantification, 1 h post-injection, i.v. tail vein, C57BL6 mice, read-out: Biodistribution, Kidney); 5 ± 0.07 %ID/g in data set [2] (female, liver, iv, 2.2 MBq, total radioactivity, PET quantification, 1 h post-injection, i.v. tail vein, C57BL6 mice, read-out: Biodistribution, Liver); 0.36 ± 0.06 %ID/g in data set [2] (female, muscle, iv, 2.2 MBq, total radioactivity, PET quantification, 1 h post-injection, i.v. tail vein, C57BL6 mice, read-out: Biodistribution, Muscle). The tissue uptake at 2 h turned out to be 122 ± 48 %ID/g in data set [2] (female, GI tract, iv, 2.2 MBq, total radioactivity, PET quantification, i.v. tail vein, C57BL6 mice, read-out: Biodistribution, GI); 30 ± 7 %ID/g in data set [2] (female, bladder, iv, 2.2 MBq, total radioactivity, PET quantification, i.v. tail vein, C57BL6 mice, read-out: Biodistribution, Bladder); 8.2 ± 0.56 %ID/g in data set [2] (female, bone (knee), iv, 2.2 MBq, total radioactivity, PET quantification, i.v. tail vein, C57BL6 mice, read-out: Biodistribution, Bone (knee)); 0.33 ± 0.03 %ID/g in data set [2] (female, brain, iv, 2.2 MBq, total radioactivity, PET quantification, i.v. tail vein, C57BL6 mice, read-out: Biodistribution, Brain); 28 ± 9 %ID/g in data set [2] (female, gallbladder, iv, 2.2 MBq, total radioactivity, PET quantification, i.v. tail vein, C57BL6 mice, read-out: Biodistribution, Gallbladder); 1.2 ± 0.26 %ID/g in data set [2] (female, heart, iv, 2.2 MBq, total radioactivity, PET quantification, i.v. tail vein, C57BL6 mice, read-out: Biodistribution, Heart). In addition, the tissue uptake at 2 h in data set [2] (female, kidney, iv, 2.2 MBq, total radioactivity, PET quantification, i.v. tail vein, C57BL6 mice, read-out: Biodistribution, Kidney) worked out at 2.2 ± 0.38 %ID/g; in data set [2] (female, liver, iv, 2.2 MBq, total radioactivity, PET quantification, i.v. tail vein, C57BL6 mice, read-out: Biodistribution, Liver), 2.4 ± 0.47 %ID/g; in data set [2] (female, muscle, iv, 2.2 MBq, total radioactivity, PET quantification, i.v. tail vein, C57BL6 mice, read-out: Biodistribution, Muscle) it was 0.27 ± 0.11 %ID/g. In addition, the tissue uptake in data set [2] (female, mouse, bone, iv, 2.2 MBq, total radioactivity, FIG. 6, time not given, C57BL/6 mice) was found to be 8 %ID/g. The clearance route result in data set [2] (microPET/CT images, C57BL/6 mice, 2.2 MBq via tail vein) is “initial clearance of [^18F]-17 via the kidneys, followed by the reabsorption of radiometabolites and the subsequent hepatobiliary clearance”. Besides, in data set [2] (microPET/CT, C57BL/6 mice, 2.2 MBq via tail vein), the plasma clearance entry is recorded as “rapid plasma clearance”.

The values above are taken from patent publication US20230106083A1, “SILICON-FLUORIDE HETEROAROMATIC SYSTEMS FOR APPLICATIONS IN POSITRON EMISSION TOMOGRAPHY (PET) MOLECULAR IMAGING” (The Regents of the University of California, priority 2019, published 2023).
